Experimental findings from patent publication US20140087995A1 (published 2014) are described below.

The target of assay [1] is T1, human calcitonin receptor (human, UniProt P30988 25-474).
T1 sequence (looked up): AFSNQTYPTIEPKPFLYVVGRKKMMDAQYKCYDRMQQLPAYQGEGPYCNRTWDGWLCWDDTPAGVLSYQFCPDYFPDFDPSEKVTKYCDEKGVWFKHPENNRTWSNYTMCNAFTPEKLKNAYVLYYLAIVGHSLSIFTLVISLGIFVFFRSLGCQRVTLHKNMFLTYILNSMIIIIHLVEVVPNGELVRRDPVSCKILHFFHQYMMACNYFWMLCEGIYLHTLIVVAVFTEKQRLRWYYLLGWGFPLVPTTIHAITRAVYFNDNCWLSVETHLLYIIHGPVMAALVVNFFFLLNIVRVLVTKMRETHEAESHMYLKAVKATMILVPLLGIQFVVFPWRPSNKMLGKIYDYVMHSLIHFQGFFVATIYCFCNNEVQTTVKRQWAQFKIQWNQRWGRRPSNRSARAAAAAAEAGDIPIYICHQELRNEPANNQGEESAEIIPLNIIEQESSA
In words: cell-based or functional assay.

The target in the next assay is T2, rat calcitonin receptor (rat, UniProt P32214 25-516).
T2 construct: whole, on cells; membranes of transiently transfected BHK tk'ts 13 cells (Assay VIII); also called rCTR; rat calcitonin (a) receptor
T2 sequence (looked up): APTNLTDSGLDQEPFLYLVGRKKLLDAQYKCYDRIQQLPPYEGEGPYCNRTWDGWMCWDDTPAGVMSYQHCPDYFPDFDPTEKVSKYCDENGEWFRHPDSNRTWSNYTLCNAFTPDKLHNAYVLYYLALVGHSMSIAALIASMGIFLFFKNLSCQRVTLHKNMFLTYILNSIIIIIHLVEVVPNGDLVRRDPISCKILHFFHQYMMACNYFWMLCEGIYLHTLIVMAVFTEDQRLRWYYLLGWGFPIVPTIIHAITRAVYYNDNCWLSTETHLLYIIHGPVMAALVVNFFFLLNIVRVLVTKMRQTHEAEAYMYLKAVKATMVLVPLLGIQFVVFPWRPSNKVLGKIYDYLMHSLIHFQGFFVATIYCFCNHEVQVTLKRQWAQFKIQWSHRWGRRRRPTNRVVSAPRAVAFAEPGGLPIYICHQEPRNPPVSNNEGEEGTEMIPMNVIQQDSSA
In words: SPA competition with 125I-calcitonin, membranes of BHK cells with rat calcitonin receptor (Assay VIII).

Assay [2] addresses T3, rat amylin receptor (rat calcitonin receptor + rat RAMP 3) (rat, UniProt P32214 25-516; Q9JJ73 23-147).
T3 construct: whole, on cells; membranes of transiently transfected BHK tk'ts 13 cells (Assay VI); also called rAmylin-R; rat amylin 3(a) receptor
T3 sequence (looked up) 1: T2 sequence (looked up)
T3 sequence (looked up) 2: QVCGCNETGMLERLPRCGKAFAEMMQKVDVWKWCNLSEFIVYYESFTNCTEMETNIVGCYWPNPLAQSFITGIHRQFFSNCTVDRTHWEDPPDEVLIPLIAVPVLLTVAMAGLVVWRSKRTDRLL
In words: SPA competition with 125I-rat amylin, membranes of BHK cells with rat calcitonin receptor + rat RAMP3 (Assay VI).

Changes are numbered by the printed parent chain. Numbered stars: 1 amine (or outer) side, 2 acyl side, 3 side chain; on linkers, the order of the positions; unused ones are H or OH. Bridge positions count the residues as written; N and C are the ends. Side chains are listed from the residue outwards. Ends that are not written are not given here. * marks the point of attachment. C20 diacid = O=C(O)CCCCCCCCCCCCCCCCCCC(=O)*; γGlu = O=C(O)[C@H](CCC(=O)[*:2])N[*:1]; AEEA = NCCOCCOCC(=O)O

B1: N^α1-[(4S)-4-carboxy-4-(19-carboxynonadecanoylamino)butanoyl]-[Arg17,Pro21,Pro27,Arg34]-h-amylin (peptide)
peptide: KCNTATCATQRLANFLRHSSPNFGAIPSSTNVGRNTY
modifications: alpha-amino group of N-terminal Lys1 acylated with C20 diacid via gGlu linker; disulfide Cys2-Cys7; C-terminal amide
notes: h-amylin derivative; disulfide bridge and C-terminal amide as told for human amylin; also called compound 39
Consider B1, for which, in assay [1], the “hCTR funct. EC50” value was determined as 2.52 nM.

B2: N^α1-[(4S)-4-carboxy-4-(19-carboxynonadecanoylamino)butanoyl]-[Arg17,Pro21,Pro27,Lys35]-h-amylin (peptide)
peptide: B1 peptide with R34S, N35K
modifications: alpha-amino group of N-terminal Lys1 acylated with C20 diacid via gGlu linker; disulfide Cys2-Cys7; C-terminal amide
notes: h-amylin derivative; disulfide bridge and C-terminal amide as told for human amylin; also called compound 34
With B2, in assay [1], the “hCTR funct. EC50” value was determined as 2.62 nM.

B3: N^α1-[2-[2-[2-[[2-[2-[2-[[(4S)-4-carboxy-4-(19-carboxynonadecanoylamino)butanoyl]amino]ethoxy]ethoxy]acetyl]amino]ethoxy]ethoxy]acetyl]-[Glu14,Arg17,Pro21,Pro27 … (peptide)
peptide: B1 peptide with N14E, R34S
modifications: alpha-amino group of N-terminal Lys1 acylated with C20 diacid via gGlu-2xOEG linker; disulfide Cys2-Cys7; C-terminal amide
notes: h-amylin derivative; disulfide bridge and C-terminal amide as told for human amylin; also called compound 19
As for B3, the “hCTR funct. EC50” value in assay [1] turned out to be 5.32 nM.

B4: N^α1-[(4S)-4-carboxy-4-(19-carboxynonadecanoylamino)butanoyl]-[Arg17,Pro21,Pro27,Glu35]-h-amylin (peptide)
peptide: B1 peptide with R34S, N35E
modifications: alpha-amino group of N-terminal Lys1 acylated with C20 diacid via gGlu linker; disulfide Cys2-Cys7; C-terminal amide
notes: h-amylin derivative; disulfide bridge and C-terminal amide as told for human amylin; also called compound 23
For the molecule B4, the “hCTR funct. EC50” value in assay [1] was found to be 3.02 nM.

B5: N^ε1-[2-[2-[2-[[(4S)-4-carboxy-4-(19-carboxynonadecanoylamino)butanoyl]amino]ethoxy]ethoxy]acetyl]-[Arg17,Pro21,Pro27,Arg35]-h-amylin (peptide)
peptide: K([AEEA-γGlu-C20 diacid])CNTATCATQRLANFLRHSSPNFGAIPSSTNVGSRTY-NH2
modifications: disulfide 2-7 (inferred)
notes: analogue of human amylin; also called compound 38
Take B5: the IC50 with rat calcitonin receptor was 38 nM; in assay [2] it was 0.383 nM.

B6: N^ε1-[(4S)-4-carboxy-4-[[(4S)-4-carboxy-4-(19-carboxynonadecanoylamino)butanoyl]amino]butanoyl]-[Asp14,Arg17,Pro21,Pro27,Arg35]-h-amylin (peptide)
peptide: K([γGlu-γGlu-C20 diacid])CNTATCATQRLADFLRHSSPNFGAIPSSTNVGSRTY-NH2
modifications: disulfide 2-7 (inferred)
notes: analogue of human amylin; also called compound 52
Consider B6, for which the results for the IC50 (in the assay with rat calcitonin receptor; in assay [2]) were 159 nM and 0.335 nM, respectively.

One may read the IC50 as the concentration that inhibits the measured activity by half.
